Tests used:
[1] = biological target: aprataxin FHA domain, recombinant, wild type (human) (UniProt Q7Z2E3); assay: ITC
[2] = biological target: aprataxin FHA domain, recombinant, Lys38Ala (human) (UniProt Q7Z2E3); assay: ITC

Substance	Kd [1]	Kd [2]
MDC1 14-residue peptide phosphorylated only on T331	58 µM	–
MDC1 14-residue peptide phosphorylated on S329 and T331	5.6 µM	80 µM

From PMC2836575
